According to PMC9403556 (STAR Protocols, 2022):

Target: T1, human eIF5-mimic protein 1 (h5MP1), wild type, untagged (human, UniProt Q9Y6E2 1-419)
T1 sequence (looked up): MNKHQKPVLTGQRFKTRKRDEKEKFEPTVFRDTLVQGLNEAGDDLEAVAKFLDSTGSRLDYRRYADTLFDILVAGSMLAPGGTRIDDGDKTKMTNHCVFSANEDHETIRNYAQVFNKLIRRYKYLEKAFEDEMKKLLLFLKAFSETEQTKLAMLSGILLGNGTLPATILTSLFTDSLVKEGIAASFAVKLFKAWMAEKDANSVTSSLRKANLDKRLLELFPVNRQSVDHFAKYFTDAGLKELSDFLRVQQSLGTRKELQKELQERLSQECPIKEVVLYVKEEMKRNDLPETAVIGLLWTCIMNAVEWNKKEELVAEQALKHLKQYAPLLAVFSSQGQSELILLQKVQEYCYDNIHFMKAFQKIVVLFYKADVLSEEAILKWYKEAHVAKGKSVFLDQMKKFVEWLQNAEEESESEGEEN
Experiment: ITC

Kd: 5 µM
B1: heIF2β_(53-136), GB1- and His-tags removed (domain or fragment, human, UniProt P20042 53-136, looked up)
chain: DLEADEEDTRKKDASDDLDDLNFFNQKKKKKKTKKIFDIDEAEEGVKDLKIESDVQEPTEPEDDLDIMLGNKKKKKKNVKFPDE
